{"source": "paper PMC11582648", "about": "(Nature Communications, 2024)", "target": "T1, GST-CK1δ (human, UniProt P48730-2 1-409)", "T1 sequence": "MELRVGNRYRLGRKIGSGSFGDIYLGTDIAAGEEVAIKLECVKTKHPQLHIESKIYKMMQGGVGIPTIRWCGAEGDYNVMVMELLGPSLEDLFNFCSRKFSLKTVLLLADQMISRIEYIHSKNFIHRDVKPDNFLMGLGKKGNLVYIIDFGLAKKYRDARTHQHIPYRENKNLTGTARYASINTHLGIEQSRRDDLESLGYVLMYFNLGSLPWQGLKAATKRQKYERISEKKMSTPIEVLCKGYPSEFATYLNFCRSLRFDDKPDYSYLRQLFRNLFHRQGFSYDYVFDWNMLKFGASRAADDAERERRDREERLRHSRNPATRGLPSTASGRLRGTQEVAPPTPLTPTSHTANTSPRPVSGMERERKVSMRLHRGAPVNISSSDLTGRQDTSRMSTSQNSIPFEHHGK", "experiment": "pull-down"}
{"binder": "His-USP46 (enzyme) MTVRNIASICNMGTNASALEKDIGPEQFPINEHYFGLVNFGNTCYCNSVLQALYFCRPFRENVLAYKAQQKKKENLLTCLADLFHSIATQKKKVGVIPPKKFISRLRKENDLFDNYMQQDAHEFLNYLLNTIADILQEEKKQEKQNGKLKNGNMNEPAENNKPELTWVHEIFQGTLTNETRCLNCETVSSKDEDFLDLSVDVEQNTSITHCLRDFSNTETLCSEQKYYCETCCSKQEAQKRMRVKKLPMILALHLKRFKYMEQLHRYTKLSYRVVFPLELRLFNTSSDAVNLDRMYDLVAVVVHCGSGPNRGHYITIVKSHGFWLLFDDDIVEKIDAQAIEEFYGLTSDISKNSESGYILFYQSRE", "values": [{"measurement": "binding result", "value": "binds"}]}
